US20130230519A1 (published 2013)
Substitutions are numbered along the chain they refer to. Each block holds one binder with its values, some of them ahead of it.

Legend:
mouse serum albumin = biological target: T1, mouse serum albumin (mouse, UniProt P07724 25-608); test: SPR (BIAcore), purified dAb
T1 construct: mature; Bought purified serum protein; also called MSA; mouse SA
Procedure: (§1) Unique dAbs were expressed as bacterial supernatants in 0.5 L shake flasks in Onex media at 30° C. for 48 hrs at 250 rpm. dAbs were purified from the culture media by absorption to protein L streamline followed by elution with 100 mM glycine pH2.0.

Rat Serum Albumin [1] = biological target: T2, Rat Serum Albumin (rat, UniProt P02770 25-608); test: SPR (BIAcore), purified dAb
T2 construct: mature; Bought purified serum protein; also called RSA; rat SA
T2 sequence (P02770 25-608): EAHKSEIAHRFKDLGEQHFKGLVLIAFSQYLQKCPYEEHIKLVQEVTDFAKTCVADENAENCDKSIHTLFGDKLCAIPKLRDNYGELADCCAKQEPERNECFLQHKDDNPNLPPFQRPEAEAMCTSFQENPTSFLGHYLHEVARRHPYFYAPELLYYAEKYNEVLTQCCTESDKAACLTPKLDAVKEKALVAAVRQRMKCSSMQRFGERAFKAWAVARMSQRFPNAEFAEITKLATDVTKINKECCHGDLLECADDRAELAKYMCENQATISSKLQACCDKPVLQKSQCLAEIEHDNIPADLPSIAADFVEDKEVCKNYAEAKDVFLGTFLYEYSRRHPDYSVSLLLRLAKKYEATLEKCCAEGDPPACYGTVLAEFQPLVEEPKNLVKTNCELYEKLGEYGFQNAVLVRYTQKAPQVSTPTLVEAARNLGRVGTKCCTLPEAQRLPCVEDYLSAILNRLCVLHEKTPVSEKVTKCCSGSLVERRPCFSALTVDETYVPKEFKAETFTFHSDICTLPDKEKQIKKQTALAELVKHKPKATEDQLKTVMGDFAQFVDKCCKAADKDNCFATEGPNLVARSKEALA
Procedure: as §1

Human Serum Albumin = biological target: T3, Human Serum Albumin (human, UniProt P02768 25-609); test: SPR (BIAcore), purified dAb
T3 construct: mature; Bought purified serum protein; Immobilised on CM5 chips; also called HSA; human SA
T3 sequence (P02768 25-609): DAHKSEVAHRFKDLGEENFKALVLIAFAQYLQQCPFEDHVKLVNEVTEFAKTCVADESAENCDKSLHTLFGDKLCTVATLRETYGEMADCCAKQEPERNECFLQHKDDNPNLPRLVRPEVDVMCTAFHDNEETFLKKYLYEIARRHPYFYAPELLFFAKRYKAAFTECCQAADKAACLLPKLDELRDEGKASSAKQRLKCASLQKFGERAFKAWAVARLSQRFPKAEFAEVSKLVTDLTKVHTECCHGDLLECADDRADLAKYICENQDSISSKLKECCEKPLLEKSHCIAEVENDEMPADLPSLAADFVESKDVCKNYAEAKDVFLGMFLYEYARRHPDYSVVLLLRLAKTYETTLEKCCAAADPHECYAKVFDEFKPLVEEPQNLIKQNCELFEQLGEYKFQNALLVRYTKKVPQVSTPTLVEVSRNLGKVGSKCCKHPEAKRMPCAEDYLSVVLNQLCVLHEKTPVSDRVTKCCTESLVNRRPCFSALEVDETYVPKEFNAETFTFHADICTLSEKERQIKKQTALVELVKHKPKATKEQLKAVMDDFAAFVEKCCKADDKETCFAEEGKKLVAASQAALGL
Procedure: as §1

[2] = biological target: T4, Cynomolgus monkey Serum Albumin (Cynomolgus monkey, UniProt A2V9Z4 25-608); test: SPR (BIAcore), purified dAb
T4 construct: mature; Purified in house; also called CSA; cyno serum albumin
T4 sequence (A2V9Z4 25-608): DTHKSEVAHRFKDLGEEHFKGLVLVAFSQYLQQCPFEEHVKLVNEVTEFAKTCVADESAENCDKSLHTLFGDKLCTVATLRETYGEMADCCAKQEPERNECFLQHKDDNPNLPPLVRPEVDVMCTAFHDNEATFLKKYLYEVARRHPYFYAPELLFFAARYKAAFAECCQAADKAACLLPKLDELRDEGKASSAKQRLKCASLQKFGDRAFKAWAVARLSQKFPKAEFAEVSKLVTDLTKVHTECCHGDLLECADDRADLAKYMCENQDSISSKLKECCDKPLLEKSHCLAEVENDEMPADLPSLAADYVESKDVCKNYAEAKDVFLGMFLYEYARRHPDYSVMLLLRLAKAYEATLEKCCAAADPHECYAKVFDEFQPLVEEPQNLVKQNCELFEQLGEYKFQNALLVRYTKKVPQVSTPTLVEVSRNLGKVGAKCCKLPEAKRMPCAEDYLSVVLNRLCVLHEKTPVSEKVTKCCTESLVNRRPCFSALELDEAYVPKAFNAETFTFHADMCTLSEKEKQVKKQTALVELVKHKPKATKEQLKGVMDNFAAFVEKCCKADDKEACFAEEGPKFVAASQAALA
Procedure: as §1

Rat Serum Albumin [3] = biological target: T2, Rat Serum Albumin; test: SPR (BIAcore), purified dAb; second protein batch, second analyst
Procedure: as §1

[4] = biological target: T4, Cynomolgus monkey Serum Albumin; test: as above
Procedure: as §1

B1: DOM7h-14-10 (other)
VL: DIQMTQSPSSLSASVGDRVTITCRASQWIGSQLSWYQQKPGKAPKLLIMWRSSLQSGVPSRFSGSGSGTDFTLTISSLQPEDFATYYCAQGLRHPKTFGQGTKVEIKR
notes: Vk dAb (AlbudAb); tag not included here
Kd (mouse serum albumin): 30.1 nM
Kd (Rat Serum Albumin [1]): 9.4 nM

B3: DOM7h-14-122 (other)
VL: B1 VL with F98Y, Q100K
Kd (Rat Serum Albumin [1]): 7.8 nM

B4: DOM7h-14-65 (other)
VL: B1 VL with S53A, R108W
notes: pDOM5 myc tag not included
Kd (mouse serum albumin): 15.3 nM
Kd (Rat Serum Albumin [3]): 25 nM
Kd [4]: 16 nM

B5: DOM7h-14-109 (other)
VL: B1 VL with S12F, H94K, E105K, R108W
notes: pDOM5 myc tag not included
Kd (mouse serum albumin): 58.1 nM
Kd (Human Serum Albumin): 108 nM
Kd (Rat Serum Albumin [1]): 15.4 nM
Kd [2]: 17.6 nM

B6: DOM7h-14-116 (other)
VL: B1 VL with S53A, H94Y, R108W
notes: pDOM5 myc tag not included
Kd (mouse serum albumin): 19.1 nM
Kd (Human Serum Albumin): 7 nM
Kd (Rat Serum Albumin [1]): 8.5 nM
Kd [2]: 22.8 nM

B11: DOM7h-14-82 (other)
VL: B1 VL with L92M, R108W
notes: pDOM5 myc tag not included
Kd (mouse serum albumin): 32.3 nM
Kd (Human Serum Albumin): 15.4 nM
Kd (Rat Serum Albumin [1]): 11.8 nM
Kd [2]: 170 nM

B14: DOM7h-14-115 (other)
VL: B1 VL with S53A, F98Y, R108W
notes: pDOM5 myc tag not included
Kd (mouse serum albumin): 9.8 nM

Other lines, results leading:

Kd (mouse serum albumin): 11.5 nM
Kd (Human Serum Albumin): 6.3 nM
Kd (Rat Serum Albumin [1]): 4.7 nM
Kd [2]: 19.9 nM
B2: DOM7h-14-76 (other)
VL: B1 VL with R93K, F98Y, R108W
notes: pDOM5 myc tag not included

Kd (mouse serum albumin): 6.3 nM
Kd (Human Serum Albumin): 11.1 nM
Kd (Rat Serum Albumin [1]): 3.4 nM
Kd [2]: 18.7 nM
B7: DOM7h-14-56 (other)
VL: B1 VL with K45M, R51S, R108W
notes: pDOM5 myc tag not included

Kd (mouse serum albumin): 23.5 nM
Kd (Human Serum Albumin): 4.8 nM
Kd (Rat Serum Albumin [1]): 4.3 nM
Kd [2]: 6.3 nM
Kd (Rat Serum Albumin [3]): 11.6 nM
Kd [4]: 2.7 nM
B8: DOM7h-14-74 (other)
VL: B1 VL with F98Y, Q100K, I106N, R108W
notes: pDOM5 myc tag not included

Kd (mouse serum albumin): 8 nM
Kd (Human Serum Albumin): 4.5 nM
Kd (Rat Serum Albumin [1]): 3.7 nM
Kd [2]: 6.4 nM
Kd (Rat Serum Albumin [3]): 29 nM
Kd [4]: 6.1 nM
B9: DOM7h-14-100 (other)
VL: B1 VL with F98Y, I106N, R108W
notes: pDOM5 myc tag not included

Kd (Rat Serum Albumin [1]): 6.2 nM
B10: DOM7h-14-119 (other)
VL: B1 VL with F98Y

Kd (Human Serum Albumin): 12 nM
Kd (Rat Serum Albumin [1]): 5.1 nM
Kd [2]: 8 nM
B12: DOM7h-14-123 (other)
VL: B1 VL with F98Y, Q100K, I106N

Kd (mouse serum albumin): 16.8 nM
Kd (Human Serum Albumin): 8.4 nM
Kd (Rat Serum Albumin [1]): 5.8 nM
Kd [2]: 11.6 nM
B13: DOM7h-14-101 (other)
VL: B1 VL with S53A, S56N, R108W
notes: pDOM5 myc tag not included

Kd (Human Serum Albumin): 14 nM
Kd (Rat Serum Albumin [1]): 2.7 nM
Kd [2]: 3.7 nM
B15: DOM7h-14-120 (other)
VL: B1 VL with F98Y, I106N
